Holding throughout (test): single-molecule force spectroscopy
Assay [1] concerns the target unmodified nucleosome (human histone octamer on 601 DNA) in nucleosome arrays (human) (UniProt P04908).
The target in assay [2] is 12-mer array with 50% H3K27M mutant copies of H3 (human) (UniProt P04908).
The target in assay [3] is 12-mer array with an equimolar mixture of unmodified and H3K27me3-containing nucleosomes (UniProt P04908).
For assay [4], the target named is H3K27M mutant nucleosome (100% H3K27M 12-mer array) (human) (UniProt P04908).

Turning to “PRC2–AEBP2 complex (from UniProt Q15910;O75530;Q09028;Q15022;Q6ZN18)”, the average transition force (all clusters) in assay [1] turned out to be 14.5 pN.

Substance “Polycomb repressive complex 2 (PRC2) core complex (from UniProt Q15910;O75530;Q09028;Q15022)” registered an average transition force (all clusters), with SAM in assay [2] of 18.3 pN. Moreover, in assay [3], the average rupture force of C3 transitions came out at 14.6 pN and the average rupture force of C4 transitions was 16.9 pN. In addition, in assay [4], the average C3 transition force, with SAM is 19.6 pN; the average C4 transition force, with SAM came to 26.1 pN; the average transition force (all clusters), with SAM amounted to 19.6 pN. In assay [1], this substance showed an average C3 transition force, with SAM of 17.8 pN; an average C4 transition force, with SAM of 19.8 pN; an average rupture force of C3 transitions (adjacent nucleosome pair) of 16.3 pN; an average transition force (all clusters) of 17 pN. In addition, in assay [1], the average transition force (all clusters), with SAM was determined as 17.8 pN.

For the origin of these results see article PMC7720148.
